From patent publication US20190322720A1
One block for each substance: values may come before it.

How the values were obtained:
[1] = molecular target: MUC5AC expressed by CFPAC-1 pancreatic tumor cells (human) (UniProt P98088); test: immunofluorescence, fixed and permeabilized CFPAC-1 cells, 2 µg/ml
[2] = molecular target: MUC5AC expressed by CFPAC-1 pancreatic tumor cells (human) (UniProt P98088); test: rosetting assay, antibody-coupled beads on CFPAC-1 cells
[3] = molecular target: MUC5AC expressed by LS174T colorectal tumor cells (human) (UniProt P98088); test: FACS, LS174 cells, 2 µg/ml FITC antibody
MUC5AC expressed by LS174T colorectal tumor cells (human), sequence (P98088 other isoform, or with tags, fused parts or gaps limits assumed, change not shown): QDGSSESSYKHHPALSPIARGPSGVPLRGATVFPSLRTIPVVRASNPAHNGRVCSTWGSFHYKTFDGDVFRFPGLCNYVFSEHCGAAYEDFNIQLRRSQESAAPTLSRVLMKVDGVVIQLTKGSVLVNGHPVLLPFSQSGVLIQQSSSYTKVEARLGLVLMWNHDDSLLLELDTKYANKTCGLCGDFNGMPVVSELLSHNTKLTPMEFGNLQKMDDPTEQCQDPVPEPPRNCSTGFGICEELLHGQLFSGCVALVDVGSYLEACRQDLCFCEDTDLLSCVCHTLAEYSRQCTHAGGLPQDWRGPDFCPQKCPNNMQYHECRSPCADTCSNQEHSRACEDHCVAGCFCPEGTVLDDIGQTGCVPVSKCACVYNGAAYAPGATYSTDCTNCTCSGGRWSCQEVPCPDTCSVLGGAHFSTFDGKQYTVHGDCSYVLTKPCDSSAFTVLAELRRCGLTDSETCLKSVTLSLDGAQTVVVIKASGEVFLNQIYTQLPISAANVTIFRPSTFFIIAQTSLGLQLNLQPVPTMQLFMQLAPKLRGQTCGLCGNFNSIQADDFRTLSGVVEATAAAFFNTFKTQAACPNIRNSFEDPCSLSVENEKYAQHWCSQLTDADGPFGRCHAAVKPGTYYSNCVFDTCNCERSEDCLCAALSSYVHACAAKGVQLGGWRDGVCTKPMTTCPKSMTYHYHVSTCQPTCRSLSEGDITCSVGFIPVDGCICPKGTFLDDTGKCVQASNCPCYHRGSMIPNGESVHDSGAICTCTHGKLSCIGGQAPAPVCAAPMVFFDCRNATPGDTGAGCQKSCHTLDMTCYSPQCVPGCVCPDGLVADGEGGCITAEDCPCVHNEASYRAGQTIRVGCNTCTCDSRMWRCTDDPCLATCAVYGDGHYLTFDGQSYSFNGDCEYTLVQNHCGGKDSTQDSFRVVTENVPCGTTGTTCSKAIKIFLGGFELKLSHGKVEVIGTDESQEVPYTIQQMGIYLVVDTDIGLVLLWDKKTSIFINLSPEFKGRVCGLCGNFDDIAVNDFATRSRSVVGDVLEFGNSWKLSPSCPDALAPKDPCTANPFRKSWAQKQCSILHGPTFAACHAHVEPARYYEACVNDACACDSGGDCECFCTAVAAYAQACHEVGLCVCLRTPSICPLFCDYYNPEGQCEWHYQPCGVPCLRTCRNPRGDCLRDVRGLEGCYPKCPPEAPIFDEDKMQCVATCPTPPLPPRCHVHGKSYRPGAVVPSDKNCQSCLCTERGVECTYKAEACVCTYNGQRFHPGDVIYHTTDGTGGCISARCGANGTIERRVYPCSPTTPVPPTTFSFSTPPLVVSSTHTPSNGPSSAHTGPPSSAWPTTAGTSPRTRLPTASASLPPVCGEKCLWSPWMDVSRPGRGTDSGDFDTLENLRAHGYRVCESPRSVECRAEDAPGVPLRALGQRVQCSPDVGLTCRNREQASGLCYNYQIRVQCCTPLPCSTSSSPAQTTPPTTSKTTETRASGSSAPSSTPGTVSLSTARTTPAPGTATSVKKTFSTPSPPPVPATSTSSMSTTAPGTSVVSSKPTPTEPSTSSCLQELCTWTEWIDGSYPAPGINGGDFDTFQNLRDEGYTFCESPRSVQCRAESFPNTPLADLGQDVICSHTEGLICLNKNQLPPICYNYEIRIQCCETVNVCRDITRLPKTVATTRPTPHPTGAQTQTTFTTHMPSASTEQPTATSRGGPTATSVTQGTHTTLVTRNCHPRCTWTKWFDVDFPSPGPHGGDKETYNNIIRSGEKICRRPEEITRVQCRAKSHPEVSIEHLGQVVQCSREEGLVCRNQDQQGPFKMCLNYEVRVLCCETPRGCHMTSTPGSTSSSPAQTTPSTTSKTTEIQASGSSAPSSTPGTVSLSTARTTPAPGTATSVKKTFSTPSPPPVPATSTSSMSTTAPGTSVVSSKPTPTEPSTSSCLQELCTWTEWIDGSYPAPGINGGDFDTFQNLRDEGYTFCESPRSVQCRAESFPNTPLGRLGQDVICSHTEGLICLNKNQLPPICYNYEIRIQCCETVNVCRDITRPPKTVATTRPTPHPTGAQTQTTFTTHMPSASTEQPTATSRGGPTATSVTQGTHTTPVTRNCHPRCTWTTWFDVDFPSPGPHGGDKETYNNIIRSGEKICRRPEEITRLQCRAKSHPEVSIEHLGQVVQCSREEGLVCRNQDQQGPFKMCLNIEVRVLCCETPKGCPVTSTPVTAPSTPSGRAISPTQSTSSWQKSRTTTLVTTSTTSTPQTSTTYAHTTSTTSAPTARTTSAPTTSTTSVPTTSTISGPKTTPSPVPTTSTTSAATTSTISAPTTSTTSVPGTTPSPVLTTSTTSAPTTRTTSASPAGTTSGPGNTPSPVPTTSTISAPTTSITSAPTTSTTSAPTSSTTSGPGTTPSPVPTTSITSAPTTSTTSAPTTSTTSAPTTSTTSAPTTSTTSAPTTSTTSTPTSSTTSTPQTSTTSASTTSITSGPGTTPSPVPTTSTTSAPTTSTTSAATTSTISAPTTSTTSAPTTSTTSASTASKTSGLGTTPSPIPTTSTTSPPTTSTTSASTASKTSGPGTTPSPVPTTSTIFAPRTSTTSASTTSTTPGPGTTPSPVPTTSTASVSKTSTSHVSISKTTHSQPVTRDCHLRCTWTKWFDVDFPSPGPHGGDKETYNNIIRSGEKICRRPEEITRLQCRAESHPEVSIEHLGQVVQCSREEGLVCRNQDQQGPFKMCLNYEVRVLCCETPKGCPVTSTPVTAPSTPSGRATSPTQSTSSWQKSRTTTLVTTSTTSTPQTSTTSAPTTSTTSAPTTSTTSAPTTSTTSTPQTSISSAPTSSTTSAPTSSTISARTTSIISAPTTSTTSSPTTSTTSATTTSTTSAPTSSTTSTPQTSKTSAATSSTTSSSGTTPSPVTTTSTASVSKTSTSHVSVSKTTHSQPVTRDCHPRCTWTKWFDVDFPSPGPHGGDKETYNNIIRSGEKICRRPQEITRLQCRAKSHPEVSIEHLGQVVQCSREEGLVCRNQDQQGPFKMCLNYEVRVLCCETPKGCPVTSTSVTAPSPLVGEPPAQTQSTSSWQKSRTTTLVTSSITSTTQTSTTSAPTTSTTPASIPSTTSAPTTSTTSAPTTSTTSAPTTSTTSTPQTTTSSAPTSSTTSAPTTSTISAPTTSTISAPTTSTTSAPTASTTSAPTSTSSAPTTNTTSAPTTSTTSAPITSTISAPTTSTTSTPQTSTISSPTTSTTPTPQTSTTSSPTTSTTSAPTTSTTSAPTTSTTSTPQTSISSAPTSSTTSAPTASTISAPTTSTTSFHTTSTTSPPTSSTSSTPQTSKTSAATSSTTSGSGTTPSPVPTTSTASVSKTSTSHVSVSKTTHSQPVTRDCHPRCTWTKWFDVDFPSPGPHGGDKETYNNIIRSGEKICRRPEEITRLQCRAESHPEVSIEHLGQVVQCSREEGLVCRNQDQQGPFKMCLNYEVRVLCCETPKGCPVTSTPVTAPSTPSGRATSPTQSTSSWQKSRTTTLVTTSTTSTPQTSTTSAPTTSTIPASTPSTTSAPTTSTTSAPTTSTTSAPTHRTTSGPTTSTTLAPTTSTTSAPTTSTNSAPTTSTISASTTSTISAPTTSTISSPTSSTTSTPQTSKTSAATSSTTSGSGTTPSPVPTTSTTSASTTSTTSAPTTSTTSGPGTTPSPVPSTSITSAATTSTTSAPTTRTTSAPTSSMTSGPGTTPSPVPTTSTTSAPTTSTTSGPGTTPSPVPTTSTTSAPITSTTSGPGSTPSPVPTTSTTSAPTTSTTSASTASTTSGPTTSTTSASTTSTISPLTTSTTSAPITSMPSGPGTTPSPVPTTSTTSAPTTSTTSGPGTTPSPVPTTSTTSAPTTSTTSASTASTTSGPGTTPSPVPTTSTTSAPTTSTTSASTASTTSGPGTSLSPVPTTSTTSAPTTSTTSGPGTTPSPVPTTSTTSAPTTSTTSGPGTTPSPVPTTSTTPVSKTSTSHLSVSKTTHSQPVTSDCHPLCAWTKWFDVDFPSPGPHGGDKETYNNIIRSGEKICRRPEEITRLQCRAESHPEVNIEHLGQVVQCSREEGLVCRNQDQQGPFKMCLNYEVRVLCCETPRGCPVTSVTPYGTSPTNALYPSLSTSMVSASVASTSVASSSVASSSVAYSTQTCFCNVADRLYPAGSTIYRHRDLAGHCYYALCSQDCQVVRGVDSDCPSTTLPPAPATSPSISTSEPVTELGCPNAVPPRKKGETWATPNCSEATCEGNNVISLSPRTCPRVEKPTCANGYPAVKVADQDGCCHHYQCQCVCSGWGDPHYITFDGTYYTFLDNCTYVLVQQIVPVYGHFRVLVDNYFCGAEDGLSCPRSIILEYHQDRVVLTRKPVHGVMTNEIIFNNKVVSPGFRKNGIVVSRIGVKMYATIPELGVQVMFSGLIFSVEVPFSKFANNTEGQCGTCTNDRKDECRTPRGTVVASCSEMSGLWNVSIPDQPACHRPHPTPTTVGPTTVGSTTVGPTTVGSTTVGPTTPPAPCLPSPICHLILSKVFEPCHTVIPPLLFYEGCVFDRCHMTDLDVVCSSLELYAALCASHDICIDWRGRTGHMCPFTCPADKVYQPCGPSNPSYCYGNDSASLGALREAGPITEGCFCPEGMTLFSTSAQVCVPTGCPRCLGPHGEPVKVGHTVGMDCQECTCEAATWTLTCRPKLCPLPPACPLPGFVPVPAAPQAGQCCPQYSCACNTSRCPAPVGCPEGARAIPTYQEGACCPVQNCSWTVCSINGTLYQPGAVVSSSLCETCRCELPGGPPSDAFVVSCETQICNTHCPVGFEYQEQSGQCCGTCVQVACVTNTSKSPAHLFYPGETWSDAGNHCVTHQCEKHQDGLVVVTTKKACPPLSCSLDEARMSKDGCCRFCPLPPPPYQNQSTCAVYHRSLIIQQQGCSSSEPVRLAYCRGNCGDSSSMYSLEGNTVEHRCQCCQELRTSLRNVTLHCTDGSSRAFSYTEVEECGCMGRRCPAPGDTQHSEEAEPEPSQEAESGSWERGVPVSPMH

[4] = molecular target: MUC5AC expressed by CFPAC-1 pancreatic tumor cells (human) (UniProt P98088); test: FACS, CFPAC cells, 2 µg/ml FITC antibody
[5] = molecular target: MUC5AC expressed by CFPAC-1 pancreatic tumor cells (human) (UniProt P98088); test: flow cytometry, CFPAC-1 pancreatic tumor cells
[6] = molecular target: MUC5AC expressed by LS174T colorectal tumor cells (human) (UniProt P98088); test: flow cytometry, LS174T colorectal tumor cells
[7] = molecular target: MUC5AC (human) (UniProt P98088); test: FACS, Colo-205 cells, 2 µg/ml FITC antibody
MUC5AC (human), sequence (P98088 other isoform, or with tags, fused parts or gaps limits assumed): as the sequence (P98088 other isoform, or with tags, fused parts or gaps limits assumed, change not shown) above

[8] = molecular target: MUC5AC (human) (UniProt P98088); test: FACS, SW480 cells, 2 µg/ml FITC antibody
[9] = molecular target: MUC5AC (human) (UniProt P98088); test: flow cytometry, Colo-205 colorectal tumor cells
[10] = molecular target: MUC5AC (human) (UniProt P98088); test: flow cytometry, SW480 colorectal tumor cells

MUC5AC expressed by CFPAC-1 pancreatic tumor cells (human), sequence (P98088 other isoform, or with tags, fused parts or gaps limits assumed): as the sequence (P98088 other isoform, or with tags, fused parts or gaps limits assumed, change not shown) above

% of cells stained [1]: 100%
Substance: 1-13M1 (Abcam Inc.) (antibody)

Rosetted cells (>8 beads) [2]: 0%
Substance: human IgG (antibody)

% of cells stained [1]: < 5%
Substance: 2-11M1 (Abcam Inc.) (antibody)

Percent positive [3]: 3.85%
Percent positive [4]: 1.79%
% Cells Stained [5]: 1.79%
mfi [5]: 25 mfi
% Cells Stained [6]: 3.85%
mfi [6]: 35 mfi
Percent positive [7]: 2.33%
Percent positive [8]: 3.38%
% Cells Stained [9]: 2.33%
mfi [9]: 34 mfi
% Cells Stained [10]: 3.38%
mfi [10]: 56 mfi
Substance: Isotype control antibody
